We go through 12 molecules from US20260183373A1 (Genentech, published 2026).

Changes are numbered by the printed parent chain. In names and notes the source's numbering stands. Where two headings read alike, the source gives them in different places.

For one experiment, the target named is T1, human IgG1 Fc (human, UniProt P01857-1 104-330 = IgG part, limits assumed).
T1 construct: domain: Fc; also called Fc domain of human IgG1
Briefly: SPR: chimeric antibody captured by anti-mouse antibody on CM5 chip, human IgG1 Fc injected.

Experiment [1] has as its target T2, Aβ(1-40) (UniProt P05067 672-711). Nature of the experiment: cell-based or functional assay.
The target of experiment [2] is T3, anti-HER2 antibody 4D5, IgG1 subtype.
T3 construct: Captured on a Protein L chip as the IgG1 target of the RF61-MMP3 fusion constructs
Nature of the experiment: SPR: 4D5 IgG1 captured on Protein L chip, RF61-MMP3 fusion constructs injected; monovalent affinity of the targeting arm. A general note: SPR reads the build-up and loss of mass on a sensor chip optically.
Method: RF61 surface plasmon resonance: RF61 affinity for human IgG was assessed with a Biacore 8K+ or T200. For rounds one and two of affinity maturation, the Fc domain of human IgG1 was captured on a Series S Protein A chip according to the manufacturer's protocols. Serial dilutions of the RF61 Fab variants were prepared in HBS-P+ buffer. The dilutions were passed over the chip for 4 min, followed by a 5 min dissociation step. Variants were assessed using the response units at the point of late analyte binding normalized to Fc capture level. […] Serial dilutions of human IgG1 Fc in HBS-P+ were passed over the chip for 10 minutes, followed by a 6 min dissociation step. Affinity constants were obtained through kinetic fitting using the Biacore Evaluation Software (GE). […] A single 1000 nM concentration of each binding ablation variant was passed over the chip for 10 minutes, followed by a 6 min dissociation step. […] Serial dilutions of the RF61-MMP3 fusion constructs were prepared in HBS-P+ buffer. The dilutions were flowed over the chip for 3 min, followed by 8 min of dissociation. […] Affinity constants were determined as described above.

A further experiment deals with T4, Aβ(1-28) (UniProt P05067 672-699).
T4 construct: domain: Aβ(1-28); also called amyloid-β 1-28
Nature of the experiment: SPR (Biacore T200): fusion captured on a protein A chip, Aβ(1-28) injected as analyte.

Experiment [3] has as its target T2, Aβ(1-40). Briefly: cell-based or functional assay. The source holds these as a separate data set.
Experiment [4] deals with T5, Aβ(1-42) (UniProt P05067 672-713). Briefly: cell-based or functional assay.
Experiment [5] addresses T2, Aβ(1-40). Nature of the experiment: cell-based or functional assay. The source holds these as a separate data set.
The target in experiment [6] is T5, Aβ(1-42). Nature of the experiment: cell-based or functional assay. The source holds these as a separate data set.

Method for Aβ(1-28): Aβ surface plasmon resonance: Solution affinity constants for anti-Aβ antibodies were assessed on a Biacore™ T200. […] Affinity constants were obtained through kinetic fitting using the Biacore Evaluation Software.

B1: RF61 chimeric antibody variant R50D LC, S62P L95N T100aA D100cE M100eF HC (mouse IgG2a constant domains) (antibody, V domains shown)
VH: QLQLQESGPGLVKPSETLSLTCTVSGGSISRGSHYWGWIRQPPGKGLEWIGSIYYSGNTYFNPPLKSRVTISVDTSKNQFSLKLSSVTAADTAVYYCARNGPDDYALEGFDVWGQGTTVTVSS
VL: QSVLTQPPSASGTPGQRVTISCSGSSSNIGSNYVYWYQQLPGTAPKLLIYDNNQRPSGVPDRFSGSKSGTSASLAISGLRSEDEADYYCATWDDSLSAVIFGGGTKLTVL
notes: Round 3 variant, one of the eight; copies: 2 + 2
Regarding B1, in the experiment with human IgG1 Fc, the binding result is listed as “binds”.

B2: RF61 chimeric antibody variant R50N LC, S62P L95N D99H T100aA D100cE M100eF HC (mouse IgG2a constant domains) (antibody, V domains shown)
VH: B1 VH with D104H
VL: B1 VL with D51N
notes: as for B1
Take B2: the binding result in the experiment with human IgG1 Fc was “binds”.

B3: RF61 chimeric antibody variant R50N Y34F LC, S62P D99H D100cE M100eF HC (mouse IgG2a constant domains) (antibody, V domains shown)
VH: B1 VH with N100L, D104H, A106T
VL: B1 VL with Y35F, D51N
notes: as for B1
As for B3, the binding result with human IgG1 Fc is recorded as “binds”.

B4: RF61 chimeric antibody variant R50N LC, L95N D99H T100aA HC (mouse IgG2a constant domains) (antibody, V domains shown)
VH: B1 VH with P64S, D104H, E108D, F110M
VL: B1 VL with D51N
notes: as for B1
B4: the binding result with human IgG1 Fc is on record as “binds”.

B5: RF61 chimeric antibody variant R50D Y34F LC, S62P L95N D100cE M100eF HC (mouse IgG2a constant domains) (antibody, V domains shown)
VH: B1 VH with A106T
VL: B1 VL with Y35F
notes: as for B1
Turning to B5, the binding result in the experiment with human IgG1 Fc is recorded as “binds”.

B6: RF61 chimeric antibody variant R50D Y34F LC, S62P D99H M100eF HC (mouse IgG2a constant domains) (antibody, V domains shown)
VH: B1 VH with N100L, D104H, A106T, E108D
VL: B1 VL with Y35F
notes: as for B1
Take B6: the binding result in the experiment with human IgG1 Fc was “binds”.

B7: anti-gD Control (antibody, human IgG1, kappa)
heavy chain with neprolysin fused to its C-terminus: not shown
light chain: DIQMTQSPSSLSASVGDRVTITCRASASVDSYGNSFIHWYQQKPGKAPKLLIYRASDLESGVPSRFSGSGSGTDFTLTISSLQPEDFATYYCQQNYADPFTFGQGTKVEIKRTVAAPSVFIFPPSDEQLKSGTASVVCLLNNFYPREAKVQWKVDNALQSGNSQESVTEQDSKDSTYSLSSTLTLSKADYEKHKVYACEVTHQGLSSPVTKSFNRGEC
As to B7, in the experiment with Aβ(1-40) [1], the “EC50 of Aβ(1-40) cleavage (intact Aβ by ELISA)” value was determined as 11 nM.

B8: Fab-NTF(LC)-1 format, MMP3-D4K-4, RF61-D (Fab)
heavy: QLQLQESGPGLVKPSETLSLTCTVSGGSISRGSHYWGWIRQPPGKGLEWIGSIYYSGNTYFNPSLKSRVTISVDTSKNQFSLKLSSVTAADTAVYYCARLGPDDYTLDGMDVWGQGTTVTVSSASTKGPSVFPLAPSSKSTSGGTAALGCLVKDYFPEPVTVSWNSGALTSGVHTFPAVLQSSGLYSLSSVVTVPSSSLGTQTYICNVNHKPSNTKVDKKVEPKSCDKTHTDYKDDDDK
light: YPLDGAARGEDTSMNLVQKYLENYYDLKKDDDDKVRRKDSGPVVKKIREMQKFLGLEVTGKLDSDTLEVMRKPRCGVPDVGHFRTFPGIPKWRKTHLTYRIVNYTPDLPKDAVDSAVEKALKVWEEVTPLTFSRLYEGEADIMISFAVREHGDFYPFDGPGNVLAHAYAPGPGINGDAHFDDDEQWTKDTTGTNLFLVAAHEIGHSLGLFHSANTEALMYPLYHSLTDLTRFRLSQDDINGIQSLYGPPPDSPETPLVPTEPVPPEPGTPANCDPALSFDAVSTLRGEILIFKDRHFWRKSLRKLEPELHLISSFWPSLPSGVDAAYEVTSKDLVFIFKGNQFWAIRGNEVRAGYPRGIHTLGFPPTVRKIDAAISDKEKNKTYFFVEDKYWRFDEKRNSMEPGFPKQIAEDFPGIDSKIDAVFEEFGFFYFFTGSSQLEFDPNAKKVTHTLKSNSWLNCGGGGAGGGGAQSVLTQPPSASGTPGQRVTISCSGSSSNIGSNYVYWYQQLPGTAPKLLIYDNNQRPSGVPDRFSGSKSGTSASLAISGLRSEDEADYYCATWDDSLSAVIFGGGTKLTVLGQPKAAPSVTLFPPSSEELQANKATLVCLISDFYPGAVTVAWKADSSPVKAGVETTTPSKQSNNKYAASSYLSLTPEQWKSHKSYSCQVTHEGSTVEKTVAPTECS
notes: MMP3-D4K-4 fused to the N-terminus of the light chain; also called RF61-D Fab fusion
One may read the Kd as a measure of binding affinity in units of concentration. Read a low Kd as tighter binding. Consider B8, for which the Kd in experiment [2] was determined as 104 nM.

B9: IgG-CTF-2 format, neprolysin, crenezumab G33S(HC) (antibody)
heavy: not shown
light: DIVMTQSPLSLPVTPGEPASISCRSSQSLVYSNGDTYLHWYLQKPGQSPQLLIYKVSNRFSGVPDRFSGSGSGTDFTLKISRVEAEDVGVYYCSQSTHVPWTFGQGTKVEIKRTVAAPSVFIFPPSDEQLKSGTASVVCLLNNFYPREAKVQWKVDNALQSGNSQESVTEQDSKDSTYSLSSTLTLSKADYEKHKVYACEVTHQGLSSPVTKSFNRGEC
notes: Variant of m9
Broadly, the koff is the rate constant with which the complex falls apart. A higher koff goes with a short-lived complex. The term kon denotes the second-order rate constant of association. Higher therefore signals faster complex formation. In the case of B9, the “EC50 of Aβ(1-40) cleavage (intact Aβ by ELISA)” value with Aβ(1-40) [1] was 1.6 nM. For the same molecule, in the experiment with Aβ(1-28), binding was put at a Kd of 1.8 nM, the koff was found to be 0.0013 s⁻¹ and the kon came out at 750000 M⁻¹ s⁻¹.

B10: IgG-CTF-2 format, neprolysin, solanezumab (antibody)
heavy: not shown
light: B9 light with I2V, P15L, E17Q, V30I, N33D, D35N, T36A, Y41F, Q50R
notes: Human IgG1 with NEP fused to the C-terminus of both heavy chains; also called solanezumab-NEP fusion
For B10, the “EC50 of Aβ(1-40) cleavage (intact Aβ by ELISA)” value with Aβ(1-40) [1] came out at 3.9 nM. In the experiment with Aβ(1-28), the Kd was 0.5 nM, the off-rate constant (koff) worked out at 0.00014 s⁻¹ and the kon worked out at 300000 M⁻¹ s⁻¹.

B11: IgG-CTF-2 format, neprolysin, crenezumab (antibody)
heavy: not shown
light: B9 light
notes: Human IgG1 with NEP fused to the C-terminus of both heavy chains; also called crenezumab-NEP fusion
Take B11: in the experiment with Aβ(1-40) [3], the “EC50 of Aβ(1-40) cleavage, fold lower than the solanezumab-NEP fusion” value was 3 fold and the “potency of Aβ cleavage, fold over the non-targeted control” value was approximately 15 fold. In the experiment with Aβ(1-42) [4], the “potency of Aβ cleavage, fold over the non-targeted control” value is approximately 9 fold. The “EC50 of Aβ(1-40) cleavage (intact Aβ by ELISA)” value with Aβ(1-40) [5] turned out to be 1.1 nM. Also, the “EC50 of Aβ(1-42) cleavage (intact Aβ by ELISA)” value in the experiment with Aβ(1-42) [6] was found to be 5 nM. Further, the “EC50 of Aβ(1-40) cleavage (intact Aβ by ELISA)” value with Aβ(1-40) [1] came out at 1.3 nM. In the experiment with Aβ(1-28), the Kd was 4.7 nM, the koff is 0.0041 s⁻¹ and the kon amounted to 880000 M⁻¹ s⁻¹.

B12: IgG-CTF-2 format, neprolysin, crenezumab G33S(HC)/S56F(LC) (antibody)
heavy: not shown
light: B9 light with S61F
notes: Variant of m9
As to B12, the “EC50 of Aβ(1-40) cleavage (intact Aβ by ELISA)” value with Aβ(1-40) [1] came to 2.3 nM. In the experiment with Aβ(1-28), this molecule registered a Kd of 0.8 nM, an off-rate (koff) of 0.0006 s⁻¹ and a kon of 750000 M⁻¹ s⁻¹.
